According to patent US20110263454A1, “Methods of Identifying Functional Characteristics of Promoters, Transcription Modifying Proteins and Transcription Modulating Agents” (Salk Institute for Biological Studies, priority 2008, published 2011):

B1: CAR: Constitutive Androstane Receptor (NR1I3), cDNA driver (protein, UniProt Q14994 1-352, looked up)
Nuclear receptor subfamily 1 …: MASREDELRNCVVCGDQATGYHFNALTCEGCKGFFRRTVSKSIGPTCPFAGSCEVSKTQRRHCPACRLQKCLDAGMRKDMILSAEALALRRAKQAQRRAQQTPVQLSKEQEELIRTLLGAHTRHMGTMFEQFVQFRPPAHLFIHHQPLPTLAPVLPLVTHFADINTFMVLQVIKFTKDLPVFRSLPIEDQISLLKGAAVEICHIVLNTTFCLQTQNFLCGPLRYTIEDGARVSPTVGFQVEFLELLFHFHGTLRKLQLQEPEYVLLAAMALFSPDRPGVTQRDEIDQLQEEMALTLQSYIKGQQRRPRDRFLYAKLLGLLAELRSINEAYGYQIQHIQGLSAMMPLLQEICS
B2: RXRg: Retinoic X Receptor γ (NR2B3), cDNA driver (protein, UniProt P48443 1-463, looked up)
Retinoic acid receptor …: MYGNYSHFMKFPAGYGGSPGHTGSTSMSPSAALSTGKPMDSHPSYTDTPVSAPRTLSAVGTPLNALGSPYRVITSAMGPPSGALAAPPGINLVAPPSSQLNVVNSVSSSEDIKPLPGLPGIGNMNYPSTSPGSLVKHICAICGDRSSGKHYGVYSCEGCKGFFKRTIRKDLIYTCRDNKDCLIDKRQRNRCQYCRYQKCLVMGMKREAVQEERQRSRERAESEAECATSGHEDMPVERILEAELAVEPKTESYGDMNMENSTNDPVTNICHAADKQLFTLVEWAKRIPHFSDLTLEDQVILLRAGWNELLIASFSHRSVSVQDGILLATGLHVHRSSAHSAGVGSIFDRVLTELVSKMKDMQMDKSELGCLRAIVLFNPDAKGLSNPSEVETLREKVYATLEAYTKQKYPEQPGRFAKLLLRLPALRSIGLKCLEHLFFFKLIGDTPIDTFLMEMLETPLQIT
B3: RXRb: Retinoic X Receptor β (NR2B2), cDNA driver (protein, UniProt P28702 1-533, looked up)
Retinoic acid receptor …: MSWAARPPFLPQRHAAGQCGPVGVRKEMHCGVASRWRRRRPWLDPAAAAAAAVAGGEQQTPEPEPGEAGRDGMGDSGRDSRSPDSSSPNPLPQGVPPPSPPGPPLPPSTAPSLGGSGAPPPPPMPPPPLGSPFPVISSSMGSPGLPPPAPPGFSGPVSSPQINSTVSLPGGGSGPPEDVKPPVLGVRGLHCPPPPGGPGAGKRLCAICGDRSSGKHYGVYSCEGCKGFFKRTIRKDLTYSCRDNKDCTVDKRQRNRCQYCRYQKCLATGMKREAVQEERQRGKDKDGDGEGAGGAPEEMPVDRILEAELAVEQKSDQGVEGPGGTGGSGSSPNDPVTNICQAADKQLFTLVEWAKRIPHFSSLPLDDQVILLRAGWNELLIASFSHRSIDVRDGILLATGLHVHRNSAHSAGVGAIFDRVLTELVSKMRDMRMDKTELGCLRAIILFNPDAKGLSNPSEVEVLREKVYASLETYCKQKYPEQQGRFAKLLLRLPALRSIGLKCLEHLFFFKLIGDTPIDTFLMEMLEAPHQLA
B4: PXR: Pregnane X Receptor (NR1I2), cDNA driver (protein, UniProt O75469 1-434, looked up)
Nuclear receptor subfamily 1 …: MEVRPKESWNHADFVHCEDTESVPGKPSVNADEEVGGPQICRVCGDKATGYHFNVMTCEGCKGFFRRAMKRNARLRCPFRKGACEITRKTRRQCQACRLRKCLESGMKKEMIMSDEAVEERRALIKRKKSERTGTQPLGVQGLTEEQRMMIRELMDAQMKTFDTTFSHFKNFRLPGVLSSGCELPESLQAPSREEAAKWSQVRKDLCSLKVSLQLRGEDGSVWNYKPPADSGGKEIFSLLPHMADMSTYMFKGIISFAKVISYFRDLPIEDQISLLKGAAFELCQLRFNTVFNAETGTWECGRLSYCLEDTAGGFQQLLLEPMLKFHYMLKKLQLHEEEYVLMQAISLFSPDRPGVLQHRVVDQLQEQFAITLKSYIECNRPQPAHRFLFLKIMAMLTELRSINAQHTQRLLRIQDIHPFATPLMQELFGITGS
B5: RORb: RAR-related Orphan Receptor β (NR1F2), cDNA driver (protein, UniProt Q92753 1-470, looked up)
Nuclear receptor ROR-beta: MCENQLKTKADATAQIEVIPCKICGDKSSGIHYGVITCEGCKGFFRRSQQNNASYSCPRQRNCLIDRTNRNRCQHCRLQKCLALGMSRDAVKFGRMSKKQRDSLYAEVQKHQQRLQEQRQQQSGEAEALARVYSSSISNGLSNLNNETSGTYANGHVIDLPKSEGYYNVDSGQPSPDQSGLDMTGIKQIKQEPIYDLTSVPNLFTYSSFNNGQLAPGITMTEIDRIAQNIIKSHLETCQYTMEELHQLAWQTHTYEEIKAYQSKSREALWQQCAIQITHAIQYVVEFAKRITGFMELCQNDQILLLKSGCLEVVLVRMCRAFNPLNNTVLFEGKYGGMQMFKALGSDDLVNEAFDFAKNLCSLQLTEEEIALFSSAVLISPDRAWLIEPRKVQKLQEKIYFALQHVIQKNHLDDETLAKLIAKIPTITAVCNLHGEKLQVFKQSHPEIVNTLFPPLYKELFNPDCATGCK

How the values were obtained:
mGhrelin promoter = assay: NHR-promoter luciferase screen, mGhrelin promoter; type: cell-based, mouse; details: for Luc. act., normalized to lacZ / Normalized Luc. act., normalized to control: Table 8, mGhrelin; for Results of assays of transcription factor (+/- ligand) with mGhrelin: Table 6d, luciferase activity relative to control (control = 1.00)
Method in brief: (§1)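 CV-1 cells were co-transfected with 50 ng NHR (homodimer or NHR/RXR heterodimer), 100 ng promoter-luciferase construct and 50 ng LacZ. Luciferase was normalized to LacZ and to a no-NHR/no-ligand control.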

mUCP3 promoter = assay: NHR-promoter luciferase screen, mUCP3 promoter; type: cell-based, mouse; details: for Normalized Luc. act., normalized to control / Luc. act., normalized to lacZ: mUCP3 promoter reporter; for Normalized Luc. act., normalized to control: HR without or with its ligand, relative to control; for Luc. act., normalized to lacZ: hormone receptor (HR) without or with its ligand; for mUCP3 promoter reporter activity: transcription factor +/- ligand, control = 1.00
Method in brief: as §1

mLeptin promoter = assay: NHR-promoter luciferase screen, mLeptin promoter; type: cell-based, mouse; details: for Luc. act., normalized to lacZ / Normalized Luc. act., normalized to control: Table 7, mLeptin; for Results of assays of transcription factor (+/- ligand) with mLeptin: Table 6d, luciferase activity relative to control (control = 1.00)
Method in brief: as §1

hPPARg1 promoter = assay: NHR-promoter luciferase screen, hPPARg1 promoter; type: cell-based, human; details: for Luc. act., normalized to lacZ / Normalized Luc. act., normalized to control: PPARG1 promoter, hormone receptor with or without its ligand; for Normalized Luc. act., normalized to control: relative to control; for Results of assays of transcription factor (+/- ligand) with hPPARg1: Table 6d, luciferase activity relative to control (control = 1.00)
Method in brief: as §1

mPOMC promoter = assay: NHR-promoter luciferase screen, mPOMC promoter; type: cell-based, mouse; details: for Results of assays of transcription factor (+/- ligand) with mPOMC: Table 6d, luciferase activity relative to control (control = 1.00); for Luc. act., normalized to lacZ / Normalized Luc. act., normalized to control: mPOMC promoter, HR component with or without ligand; for Normalized Luc. act., normalized to control: relative to control
Method in brief: as §1

hIRF7 promoter = assay: NHR-promoter luciferase screen, hIRF7 promoter; type: cell-based, human; details: for Normalized Luc. act., normalized to control / Luc. act., normalized to lacZ: IRF7 promoter reporter; for Normalized Luc. act., normalized to control: HR without or with its ligand, relative to control; for Luc. act., normalized to lacZ: hormone receptor (HR) without or with its ligand; for hIRF7 promoter reporter activity: transcription factor +/- ligand, control = 1.00
Method in brief: as §1

| Molecule | Luc. act., normalized to lacZ (mGhrelin promoter) | Normalized Luc. act., normalized to control (mGhrelin promoter) | Results of assays of transcription factor (+/- ligand) with mGhrelin (mGhrelin promoter) | Normalized Luc. act., normalized to control (mUCP3 promoter) | Luc. act., normalized to lacZ (mUCP3 promoter) | mUCP3 promoter reporter activity (mUCP3 promoter) | Luc. act., normalized to lacZ (mLeptin promoter) | Normalized Luc. act., normalized to control (mLeptin promoter) | Results of assays of transcription factor (+/- ligand) with mLeptin (mLeptin promoter) | Luc. act., normalized to lacZ (hPPARg1 promoter) | Normalized Luc. act., normalized to control (hPPARg1 promoter) | Results of assays of transcription factor (+/- ligand) with hPPARg1 (hPPARg1 promoter) | Results of assays of transcription factor (+/- ligand) with mPOMC (mPOMC promoter) | Luc. act., normalized to lacZ (mPOMC promoter) | Normalized Luc. act., normalized to control (mPOMC promoter) | Normalized Luc. act., normalized to control (hIRF7 promoter) | Luc. act., normalized to lacZ (hIRF7 promoter) | hIRF7 promoter reporter activity (hIRF7 promoter) |
| --- | --- | --- | --- | --- | --- | --- | --- | --- | --- | --- | --- | --- | --- | --- | --- | --- | --- | --- |
| B1 | 52.2 | 1.0 | 1.00 | 0.9 | 0.6 | 0.90 | 2.7 | 0.9 | 0.93 | 46.4 | 0.7 | 0.67 | 0.92 | 63.8 | 0.9 | 1.4 | 37.3 | 1.42 |
| B2 | 59.0 | 1.1 | 1.13 | 1.4 | 1.0 | 1.41 | 2.1 | 0.7 | 0.70 | 43.7 | 0.6 | 0.63 | 1.06 | 73.2 | 1.1 | 1.0 | 27.4 | 1.04 |
| B3 | 62.9 | 1.2 | 1.20 | 0.8 | 0.6 | 0.83 | 1.5 | 0.5 | 0.50 | 23.1 | 0.3 | 0.34 | 1.19 | 81.8 | 1.2 | 0.3 | 8.9 | 0.34 |
| B4 | 136.2 | 2.6 | 2.61 | 1.3 | 0.9 | 1.34 | 4.1 | 1.4 | 1.40 | 63.3 | 0.9 | 0.92 | 1.30 | 89.4 | 1.3 | 1.4 | 36.3 | 1.38 |
| B5 | 89.1 | 1.7 | 1.70 | 1.3 | 0.9 | 1.33 | 3.3 | 1.1 | 1.12 | 51.1 | 0.7 | 0.74 | 1.29 | 88.7 | 1.3 | 1.6 | 40.9 | 1.55 |
